Experiment: purified protein yield per well (BCA); higher = higher soluble expression
Outline: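 Candidate enzymes were expressed in E. coli C41(DE3) in 2 mL autoinduction cultures with 100 µg/mL kanamycin, at 37 °C for 2 h and then 18 °C for 40 h. Cells were lysed, and protein was bound to Ni-charged magnetic beads and released by SUMO protease cleavage on an OT-2 robot. The read-out is purified protein yield per well, measured with the Pierce Rapid Gold BCA kit. Values below 25 ug (0.1 mg/mL) are below the detection threshold.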

| Sequence | purified protein yield per well [µg] |
| --- | --- |
| DEIGSAPTAATITGNGSFATASTSVSSPSGFRGGQVYYPSTAGTYPVIAVVPGYLSYWSSISWLGPRLASWGFVVVGIETNSIYDQPASRGSQLRAALTWAVNTSPTTVRSRVDANRQGVAGWSMGGGGSLEALKADTSGRIKAAVPMAPWNSDQSWPEVTESVAIVGGQSDSVAPVSSHSIPFYNSLAGPKSYVELAGASHFFPNSDNPSLSRMIVSWFKRWINNDTRFTTFTCGFTGSAISSFRTNAC [ESM178] | 27.5 |
| DENPLERGPDPTESFIEQRRGNYDVAQRSINRMGSDGFRNGTIYYPTDSSDGQFGVIAISPGYTAGESSIAWLGARMASFGFVVVTINTTTRYDQPRQRSTQLLAALDHAMEDSVVGPMIDPERQAVMGHSMGGGGALQAAESRPEIDAVIPLTPWNLKRNWRNIDAATLIIGAERDTIASVRTHSIPFYESLTGADQRGYLELRGASHFAPNFSNTTIAKYSVAWMKRHLDDDERYEKFLTPGPTVGYSSGVSDYRLQ [DP097] | < 25 |
| DEVGQAPTAANIVGDGSFATTSSAITGQSGFGGGTVYYPTTAGRYPVVAVAPGFLSDWNSLNWLGSRVASWGFVVVGVNTNSGFDFPPSRGDQLLAALNWAVGSAPVAVRDKVDGTRRGVAGWSMGGGGTLEALAKDTTGTVKAGVPLAPWHSDKTWEQVSEPVFLVGGQNDTVAAPSSHAIPFYNSLGGQKSYLELAGQAHFFPTTSNPTVSRAIVSWFKRFVSSDNRFTPFTCGYTGSAVSNFRSSAC [ESM100] | < 25 |
| DGEYRVLTYTDFPDAPEFGDGTIYYPVGTPGPIGGVAIVPGFTEEQRAVAWLGPRLASHGYAVLIFDTNDRRDPAQVRADELMGAVRVLRAENSRRGSPLFGRIDASKMAIMGHSMGGGGALLAADAHSDQVSAVITFAPYEPTASFSEITVPTLIFGGSADPIAPVADHAWRHFNSIPAST [TEP123] | < 25 |
| DGPYDVDWIYESDGLRNGPYYLGATLYYPINAPEPLASIVIVPGWGMPESTMQDWGPFFASWGIIAMTIGTNNPSTDWPEDRAEALLDAIETIKQENDRIDSPVNGRIDLNSFAVSGWSMGGGGAQLAAVMEPTLKAVIALCPWLDNWVLEPDDLNHSVPTLIFSGQYDVNAPPYLHANIHYNYTPSTTDKLLFEVEYGDHYVANGPNGGSGYVGDKALEWIN [TEP053] | < 25 |
| DGPYDVDWIYESDGLRNGPYYLGATLYYPINTSESLASIVIVPGWGMPESSIQNWGPFFASWGIIAMTIGTNNPYDWPEERAEALLDAIETIKQENVRSDSPVYGMVDINSFAVCGYSMGGGGAQWAATIDSYLDAVVALNPALAIYDTINCTDPEFDYYCLVPEHLNHSTPVLIITGENEDANGTSATGYNHYEYTPNATDKMFFQVSNSGHEAAYGPYGANGEVGEKSMQWLKFHLFCLEFLNIIKLQRKLKMI [TEP020] | < 25 |
| DGYERGPDPTPTRLLGNGSFSVSTTSVSSLVLGFGGGTIYYPTSTSEGTFGGVVLSPGFTATSGSYAGVARRVASHGFVVLVIDTNTIYDQPDSRGRQILDAVDYLTEDAPSAVASRLDESRIAVSGHSMGGGGTLYAADNRTSVIKTAVALQPWHTDKTWPGVDIPTMIIGAENDAIAPVSSHSIPFYASLSGAPEKAYGEVNNAGHLIANTNDDWQGRLFVSWLKRYLDEDLRYEAFLCPAPSSISLSDYRDTCPG [DP030] | < 25 |
| DPTAFAVHGPDPTAQSVQAQRGPYATSRTTVSSGTGFNRGTIYYPTTTSEGTFSAVAVIPGFTESESTMSWYGTTLSSHGFVVFTLEAEGGLDFPDARADQLLAALDYLVNSSSVRDRVDRNRLGVMGHSMGGGGTLEAANERPSLRAAIPLAAWHNTKNFPQVQAATLVISAEGDSVASPASHSEPFYQGLRSAEKAYLELNNGNHFTTNSYTPTVTKYAVSWLKRFLDDDTRYSQFLCPPPPPDSNINEYRHTCPV [DP055] | < 25 |
| DSPYERGPDPTERSIEATRGPFSVSTISVSDFSTPGFGAANITYPTSRSEGTFGVVAISPGYTAGESTIAWLRPRIASQGFVVISFDTNSRTDFPSSRGDQLLAALDYVIEDSSVRDRVDGSRQAVMGHSMGGGGSLEAASDRRSIEAVVGLTPWNSDKTWSEVDAASLMIGAENDSVAPARTHAIPFYNSLTGAEDRAYLELDGASHLAPTFSNTEIAKYSISWLKRFVDDDDRYDQFLCPAPSTGFGSPLSDSRVSCPLG [DP098] | < 25 |

— the supplement of paper PMC12455559
